The results in this text go back to US20160200799A1.

In experiment [1] the target is Influenza virus A/Brisbane/59/2007 (H1N1) (Influenza A virus A/Brisbane/59/2007 (H1N1)). Put plainly: ELISA on coated viral particles. A general note: An ELISA detects its analyte on a solid surface through an enzyme-linked reagent.
Experiment [2] addresses Influenza virus A/California/7/2009pdm (H1N1pdm) (Influenza A virus A/California/7/2009pdm (H1N1pdm)). Put plainly: ELISA on coated viral particles.
The target in experiment [3] is Influenza virus A/New Caledonia/20/1999 (H1N1) (Influenza A virus A/New Caledonia/20/1999 (H1N1)). The experiment can be described thus: ELISA on coated viral particles.
Experiment [4] addresses Influenza virus A/Panama/2007/1999 (H3N2) (Influenza A virus A/Panama/2007/1999 (H3N2)). The experiment can be described thus: ELISA on coated viral particles.
The target in experiment [5] is Influenza virus A/Brisbane/59/2007 (H1N1) (Influenza A virus A/Brisbane/59/2007 (H1N1)). Put plainly: cell-based or functional assay.
Experiment [6] addresses Influenza virus A/Indonesia/5/2005/PR8-IBCDC-RG2 (H5N1) (Influenza A virus A/Indonesia/5/2005/PR8-IBCDC-RG2 (H5N1)). Put plainly: cell-based or functional assay.
In experiment [7] the target is Influenza virus A/Okuda/1957 (H2N2) (Influenza A virus A/Okuda/1957 (H2N2)). Put plainly: cell-based or functional assay.
The target of experiment [8] is Influenza virus A/Panama/2007/1999 (H3N2) (Influenza A virus A/Panama/2007/1999 (H3N2)). The experiment can be described thus: cell-based or functional assay.
Experiment [9] addresses Influenza virus A/Suita/1/2009pdm (H1N1 2009 pandemic) (Influenza A virus A/Suita/1/2009pdm (H1N1pdm)). Put plainly: cell-based or functional assay.

B1: Group 39 representative clone F082-237, Fab-cp3-type antibody (Fab, V domains shown)
VH: QVQLVQSGAEVKKPGSSVKVSCKASGGIFNKYGISWVRQAPGQGLEWMGGILAIFGTTNYAQKFQGRVTISADESSTTVYMELSSLTSEDTAVYYCARGNTYYSSYFDQWGQGTLVTVSS
VL: QSVLTQPPSVSVAPGQTATITCGGDKIGTGPVHWYQQMPGRAPVLLIYASTHRPSRIPERFSGSKSDNTATLSISGVGVGDEADYYCQMWDSSSVHPIVFGGGTKLTVLS
On to B1, for which the Binding activity (absorbance at 492 nm) worked out at 1.95 in [1], 2.62 in experiment [2], 1.94 in experiment [3] and 0.13 in experiment [4].

B2: Group 54 representative clone F083-354, Fab-cp3-type antibody (Fab, V domains shown)
VH: QVQLVQSGSEVKKPGSSVKVSCKASGGIFNSYGISWVRQAPGQGLEWMGGILAIFGTTNYAQKFQGRVTITADDSSKTVYMELSSLTSEDTAVYYCARGSTYYSSYFDQWGQGTLVTVSS
VL: DIQMTQSPSSLSASVGDRVTITCRASQGIRNSLAWYQQKPGQVPKLLIYSATTLRSGVPYRFSGSGSGTDFTLTISGLQPEDVGTYFCHRYDSAPLTFGGGTRVALK
As to B2, the Binding activity (absorbance at 492 nm) came to 3.01 in experiment [1], 2.54 in [2], 3.05 in [3] and 0.16 in [4].

B3: Group 52 representative clone F083-328, Fab-cp3-type antibody (Fab, V domains shown)
VH: QVQLVQSGAEVKKPGSSVKLSCKASGGTLRSYALSWVRQAPGEGLEWMGGISAIFNTATYAQNVQGRVTITADESTNTFYLEVSSLRSDDTAVYYCATSGTYYVSFFDYWGQGTLVTVSS
VL: DIVLTQSPSTLSASVGDRVTLTCRASQSIGSLMAWYQQQPGKPPKLLIYRASNLETGVPSRFTGSGSGTEFALTISSLQPDDVGTYYCQHFKTFSRTFGQGTKVEIK
Regarding B3, the Binding activity (absorbance at 492 nm) was 2.43 in [1], 2.02 in experiment [2], 2.66 in experiment [3] and 0.22 in experiment [4].

B4: Group 37 representative clone F083-311, Fab-cp3-type antibody (Fab, V domains shown)
VH: QVQLVQSGSEVKKPGSSVKVSCKASGGIFRTNAISYVRQAPGQGLEWMGGITAIFGTPNYAQKFQGRVTIIADESTSTVYMELGSLTSEDTAVYYCATSGTYYVSYFDSWGQGTLVTVSS
VL: DIVMTQSPGTLTLSPGERATLSCRASQSLYSSHLAWYQQKPGQPPRLLIYGASTRAPGTPDRFSGSGSGTDFTLTITALDPEDSAVYYCQQYGSSPITFGQGTRLEIK
As for B4, the Binding activity (absorbance at 492 nm) in [1] was 2.64; in experiment [2], 1.82; in experiment [3], 2.59; in experiment [4], 0.15.

B5: F083-336 completely humanized IgG antibody (antibody, V domains shown)
VH: QVQLQQSGAEVKQPGSSVKVSCKASGGIFRSNAISWVRQAPGQGLEWMGGIVALFGTANYAQKFQGRVTITADESTSTVYMELSSLRSEDTARYYCARNSGYHISGFYLDYWGQGTLVTVSS
VL: EIVLTQSPSSLSASVGDRVTITCRASQGISNYLAWYQQRPGKVPKLLIYTASTLLSGVPSRFSGGGSGTDYTLTISSLQPEDVATYYCQEYKSVPLTFGPGTKVEIK
With B5, in experiment [5], the Infection inhibition rate (%) at 0.002 µg/mL is 2.3%, the Infection inhibition rate (%) at 0.006 µg/mL was found to be 7.3%, the Infection inhibition rate (%) at 0.024 µg/mL was determined as 11.1% and the Infection inhibition rate (%) at 0.391 µg/mL worked out at 42.4%. In experiment [5], this molecule registered an Infection inhibition rate (%) at 0.98 µg/mL of 32.4%, an Infection inhibition rate (%) at 1.6 µg/mL of 72.1%, an Infection inhibition rate (%) at 6.3 µg/mL of 90.5% and an Infection inhibition rate (%) at 25.0 µg/mL of 97.3%. Moreover, in [5], the Infection inhibition rate (%) at 100.0 µg/mL was 100% and the Infection inhibition rate (%) at 200.0 µg/mL was 100%. In experiment [6], this molecule came in with an Infection inhibition rate (%) of 1%, an Infection inhibition rate (%) at 0.024 µg/mL of 0%, an Infection inhibition rate (%) at 0.391 µg/mL of 22.1% and an Infection inhibition rate (%) at 1.6 µg/mL of 40.5%. In experiment [6], this molecule had an Infection inhibition rate (%) at 6.3 µg/mL of 66.4%, an Infection inhibition rate (%) at 25.0 µg/mL of 86.7%, an Infection inhibition rate (%) at 100.0 µg/mL of 89.3% and an Infection inhibition rate (%) at 200.0 µg/mL of 98.5%. In [7], this molecule showed an Infection inhibition rate (%) of 2.5%, an Infection inhibition rate (%) at 0.024 µg/mL of 0%, an Infection inhibition rate (%) at 0.391 µg/mL of 19.9% and an Infection inhibition rate (%) at 1.6 µg/mL of 39.8%. Also, in experiment [7], the Infection inhibition rate (%) at 6.3 µg/mL amounted to 81.5%, the Infection inhibition rate (%) at 25.0 µg/mL stood at 86.7%, the Infection inhibition rate (%) at 100.0 µg/mL came out at 85.9% and the Infection inhibition rate (%) at 200.0 µg/mL came out at 98.9%. In experiment [8], this molecule yielded an Infection inhibition rate (%) of 2.9%, an Infection inhibition rate (%) at 0.391 µg/mL of 4.8%, an Infection inhibition rate (%) at 1.6 µg/mL of 0% and an Infection inhibition rate (%) at 6.3 µg/mL of 0%. In experiment [8], this molecule registered an Infection inhibition rate (%) at 25.0 µg/mL of 0%, an Infection inhibition rate (%) at 100.0 µg/mL of 0% and an Infection inhibition rate (%) at 200.0 µg/mL of 0%. In experiment [9], this molecule returned an Infection inhibition rate (%) of 30.7%, an Infection inhibition rate (%) at 0.002 µg/mL of 0%, an Infection inhibition rate (%) at 0.006 µg/mL of 13.8% and an Infection inhibition rate (%) at 0.024 µg/mL of 30.7%. In experiment [9], this molecule showed an Infection inhibition rate (%) at 0.391 µg/mL of 62.1%, an Infection inhibition rate (%) at 1.6 µg/mL of 93.2%, an Infection inhibition rate (%) at 6.3 µg/mL of 100% and an Infection inhibition rate (%) at 25.0 µg/mL of 100%. In addition, in [9], the Infection inhibition rate (%) at 100.0 µg/mL came to 100% and the Infection inhibition rate (%) at 200.0 µg/mL worked out at 100%.

B6: F081-007 completely humanized IgG antibody (antibody, V domains shown)
VH: QVQLQQSGAEVKKPGSSVKVSCKASGGIFRKNAISWVRQAPGQGLEWMGGISAIFGTANYAQKFQGRVTITADESSNTVYMDLSRLRSEDTAIYYCASHPTYHFDKSGYRFDSWGQGTLVTVSS
VL: QSVLTQPPSVSAAPGQKVTISCSGSSSNIGNNYVSWYQQLPGTAPKLLIYDNNKRPSGIPDRFSGSKSGTSATLGITGLQTGDEADYYCGTWDSSLSAGVFGGGTKLTVLG
Regarding B6, in [5], the Infection inhibition rate (%) is 36.3%, the Infection inhibition rate (%) at 0.002 µg/mL stood at 0%, the Infection inhibition rate (%) at 0.006 µg/mL came to 9.9% and the Infection inhibition rate (%) at 0.024 µg/mL is 27.9%. In [5], the Infection inhibition rate (%) at 0.391 µg/mL was determined as 59.2%, the Infection inhibition rate (%) at 1.6 µg/mL turned out to be 82.4%, the Infection inhibition rate (%) at 6.3 µg/mL amounted to 90.1% and the Infection inhibition rate (%) at 25.0 µg/mL was determined as 100%. Moreover, in [5], the Infection inhibition rate (%) at 100.0 µg/mL was determined as 100% and the Infection inhibition rate (%) at 200.0 µg/mL was 100%. Besides, in [6], the IC50 of neutralization turned out to be 0.36 µg/mL, the Infection inhibition rate (%) was 10.2%, the Infection inhibition rate (%) at 0.024 µg/mL was 7% and the Infection inhibition rate (%) at 0.391 µg/mL was found to be 55.3%. In [6], this molecule gave an Infection inhibition rate (%) at 1.6 µg/mL of 85.1%, an Infection inhibition rate (%) at 6.3 µg/mL of 100%, an Infection inhibition rate (%) at 25.0 µg/mL of 100% and an Infection inhibition rate (%) at 100.0 µg/mL of 100%. In experiment [6], this molecule yielded an Infection inhibition rate (%) at 200.0 µg/mL of 100%. Besides, in [7], the Infection inhibition rate (%) at 0.024 µg/mL was determined as 0%, the Infection inhibition rate (%) at 0.391 µg/mL was 37.2%, the Infection inhibition rate (%) at 0.98 µg/mL stood at 16.5% and the Infection inhibition rate (%) at 1.6 µg/mL amounted to 79%. In addition, in experiment [7], the Infection inhibition rate (%) at 6.3 µg/mL is 92.6%, the Infection inhibition rate (%) at 25.0 µg/mL stood at 98.2%, the Infection inhibition rate (%) at 100.0 µg/mL stood at 98.9% and the Infection inhibition rate (%) at 200.0 µg/mL came out at 98.9%. For the same molecule, in experiment [8], the Infection inhibition rate (%) was 0%, the Infection inhibition rate (%) at 0.391 µg/mL came to 0%, the Infection inhibition rate (%) at 1.6 µg/mL stood at 0% and the Infection inhibition rate (%) at 6.3 µg/mL is 0%. Besides, in [8], the Infection inhibition rate (%) at 25.0 µg/mL came out at 0%, the Infection inhibition rate (%) at 100.0 µg/mL worked out at 0% and the Infection inhibition rate (%) at 200.0 µg/mL amounted to 0%. In experiment [9], this molecule showed an Infection inhibition rate (%) of 49.8%, an Infection inhibition rate (%) at 0.002 µg/mL of 29.3%, an Infection inhibition rate (%) at 0.006 µg/mL of 32% and an Infection inhibition rate (%) at 0.024 µg/mL of 45.3%. In addition, in [9], the Infection inhibition rate (%) at 0.391 µg/mL was found to be 83.1%, the Infection inhibition rate (%) at 1.6 µg/mL amounted to 96.8%, the Infection inhibition rate (%) at 6.3 µg/mL was 100% and the Infection inhibition rate (%) at 25.0 µg/mL was 100%. In experiment [9], this molecule had an Infection inhibition rate (%) at 100.0 µg/mL of 100% and an Infection inhibition rate (%) at 200.0 µg/mL of 100%.
